Paper PMC7612939

Biological target: TCRβ chain of the 5c.c7 TCR (Vβ3) (mouse (T-cells of 5c.c7 TCR transgenic mice))
Test: FRET or BRET

Substance: CD3ε (from UniProt P22646 22-189) (natural protein)
- FRET yield: 25%
